Where two headings read alike, the source gives them in different places. One block for each binder: values may come before it.
Legend:
human TIMP-1 [1] = target: T1, human TIMP-1 (human, UniProt P01033 24-207); assay: BIAcore SPR, Fab, monovalent fit
T1 construct: Immobilised on BIAcore chip or ELISA plate; in solution in the protease assay

human TIMP-1 [2] = target: T1, human TIMP-1; assay: cell-based or functional assay
human TIMP-1 [3] = target: T1, human TIMP-1; assay: BIAcore SPR, Fab, monovalent fit; remark: listed apart in the source
rat TIMP-1 [4] = target: T2, rat TIMP-1 (rat, UniProt P30120 24-217); assay: BIAcore SPR, Fab
T2 construct: Immobilised on BIAcore chip or ELISA plate; in solution in the protease assay

rat TIMP-1 [5] = target: T2, rat TIMP-1; assay: cell-based or functional assay
human TIMP-1 [6] = target: T1, human TIMP-1; assay: cell-based or functional assay; remark: listed apart in the source
human TIMP-1 [7] = target: T1, human TIMP-1; assay: cell-based or functional assay; remark: listed apart in the source
human TIMP-1 [8] = target: T1, human TIMP-1; assay: BIAcore SPR, Fab
rat TIMP-1 [9] = target: T2, rat TIMP-1; assay: cell-based or functional assay; remark: listed apart in the source

T2 sequence (P30120 24-217 limits assumed): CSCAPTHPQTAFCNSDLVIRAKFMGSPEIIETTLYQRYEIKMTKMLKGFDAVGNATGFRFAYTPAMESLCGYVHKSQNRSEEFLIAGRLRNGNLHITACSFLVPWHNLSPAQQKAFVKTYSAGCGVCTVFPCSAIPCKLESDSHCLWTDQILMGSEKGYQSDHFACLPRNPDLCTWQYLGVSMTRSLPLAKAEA

- Kd (human TIMP-1 [1]): 0.013 µM
- IC50 in human protease assay (human TIMP-1 [2]): 0.011 µM
- Kd (human TIMP-1 [3]): 0.013 µM
B1: MS-BW-3 (Fab, V domains shown)
VH: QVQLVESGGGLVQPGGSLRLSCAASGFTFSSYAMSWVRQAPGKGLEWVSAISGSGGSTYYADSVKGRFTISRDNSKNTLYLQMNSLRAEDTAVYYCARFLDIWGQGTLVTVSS
VL: DIALTQPASVSGSPGQSITISCTGTSSDVGGYNYVSWYQQHPGKAPKLMIYDVSNRPSGVSNRFSGSKSGNTASLTISGLQAEDEADYYCQSYDFLRFSVFGGGTKLTVL

- improvement factor (affinity) over parental clone (rat TIMP-1 [4]): 16.3 fold
B2: MS-BW-17-1 Fab (Fab, V domains shown)
VH: QVQLVQSGAEVKKPGESLKISCKGSGYSFTSYWIGWVRQMPGKGLEWMGIIYPGDSDTRYSPSFQGQVTISADKSISTAYLQWSSLKASDTAMYYCARLTNYFDSIYYDHWGQGTLVTVSS
VL: DIALTQPASVSGSPGQSITISCTGTSSDVGGYNYVSWYQQHPGKAPKLMIYDVSNRPSGVSNRFSGSKSGNTASLTISGLQAEDEADYYCQAFDVAPNGKVFGGGTKLTVLG
notes: Fab; LCDR3-optimised from MS-BW-17

- improvement factor (functional activity in the protease assay) over parental clone (rat TIMP-1 [5]): 10 fold
B3: MS-BW-17-2 (Fab, V domains shown)
VH: QVQLVQSGAEVKKPGESLKISCKGSGYSFTSYWIGWVRQMPGKGLEWMGIIYPGDSDTRYSPSFQGQVTISADKSISTAYLQWSSLKASDTAMYYCARLTNYFDSIYYDHWGQGTLVTVSS
VL: DIALTQPASVSGSPGQSITISCTGTSSDVGGYNYVSWYQQHPGKAPKLMIYDVSNRPSGVSNRFSGSKSGNTASLTISGLQAEDEADYYCQAFAVMPNVEVFGGGTKLTVLG

- improvement factor (IC50) over MS-BW-3 (human TIMP-1 [6]): 2.75 fold
B4: MS-BW-44 (Fab, V domains shown)
VH: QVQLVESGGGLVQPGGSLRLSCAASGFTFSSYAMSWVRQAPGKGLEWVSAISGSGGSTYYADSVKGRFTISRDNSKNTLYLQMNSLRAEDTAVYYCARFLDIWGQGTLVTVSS
VL: DIALTQPASVSGSPGQSITISCTGTSSDVGGYNYVSWYQQHPGKAPKLMIYDVSNRPSGVSNRFSGSKSGNTASLTISGLQAEDEADYYCQSYDFVRFMVFGGGTKLTVLG

- ID50 in human protease assay (modified assay) (human TIMP-1 [7]): 0.0002 µM
B5: MS-BW-44-2-15 (Fab, V domains shown)
VH: QVQLVESGGGLVQPGGSLRLSCAASGFTFSSYAMSWVRQAPGKGLEWVSGISGNGVLIFYADSVKGRFTISRDNSKNTLYLQMNSLRAEDTAVYYCARWFDHWGQGTLVTVSS
VL: DIALTQPASVSGSPGQSITISCTGTSSDVGGYNYVSWYQQHPGKAPKLMIYDVSNRPSGVSNRFSGSKSGNTASLTISGLQAEDEADYYCQSYDFVRFMVFGGGTKLTVLG

- ID50 in human protease assay (modified assay) (human TIMP-1 [7]): 0.0003 µM
B6: MS-BW-44-2-16 (Fab, V domains shown)
VH: QVQLVESGGGLVQPGGSLRLSCAASGFTFSSYAMSWVRQAPGKGLEWVSGISGNGVLIFYADSVKGRFTISRDNSKNTLYLQMNSLRAEDTAVYYCARWFDVWGQGTLVTVSS
VL: DIALTQPASVSGSPGQSITISCTGTSSDVGGYNYVSWYQQHPGKAPKLMIYDVSNRPSGVSNRFSGSKSGNTASLTISGLQAEDEADYYCQSYDFVRFMVFGGGTKLTVLG

- ID50 in human protease assay (modified assay) (human TIMP-1 [7]): 0.0002 µM
B7: MS-BW-44-2-4 (Fab, V domains shown)
VH: QVQLVESGGGLVQPGGSLRLSCAASGFTFSSYAMSWVRQAPGKGLEWVSGISGNGVLIFYADSVKGRFTISRDNSKNTLYLQMNSLRAEDTAVYYCARGLMDYWGQGTLVTVSS
VL: DIALTQPASVSGSPGQSITISCTGTSSDVGGYNYVSWYQQHPGKAPKLMIYDVSNRPSGVSNRFSGSKSGNTASLTISGLQAEDEADYYCQSYDFVRFMVFGGGTKLTVLG

- ID50 in human protease assay (modified assay) (human TIMP-1 [7]): 0.0004 µM
- affinity gain factor (Kd) over MS-BW-44 (human TIMP-1 [8]): 5 fold
- gain factor (IC50) over MS-BW-44 (human TIMP-1 [6]): 5 fold
B8: MS-BW-44-2 (Fab, V domains shown)
VH: QVQLVESGGGLVQPGGSLRLSCAASGFTFSSYAMSWVRQAPGKGLEWVSGISGNGVLIFYADSVKGRFTISRDNSKNTLYLQMNSLRAEDTAVYYCARFLDIWGQGTLVTVSS
VL: DIALTQPASVSGSPGQSITISCTGTSSDVGGYNYVSWYQQHPGKAPKLMIYDVSNRPSGVSNRFSGSKSGNTASLTISGLQAEDEADYYCQSYDFVRFMVFGGGTKLTVLG
notes: Fab

- ID50 in human protease assay (modified assay) (human TIMP-1 [7]): 0.0002 µM
- affinity gain factor (Kd) over MS-BW-44 (human TIMP-1 [8]): 5 fold
- gain factor (IC50) over MS-BW-44 (human TIMP-1 [6]): 10 fold
B9: MS-BW-44-6 (Fab, V domains shown)
VH: QVQLVESGGGLVQPGGSLRLSCAASGFTFNSYAMSWVRQAPGKGLEWVSVISGNGSNTYYADSVKGRFTISRDNSKNTLYLQMNSLRAEDTAVYYCARFLDIWGQGTLVTVSS
VL: DIALTQPASVSGSPGQSITISCTGTSSDVGGYNYVSWYQQHPGKAPKLMIYDVSNRPSGVSNRFSGSKSGNTASLTISGLQAEDEADYYCQSYDFVRFMVFGGGTKLTVLG
notes: Fab

- ID50 in human protease assay (modified assay) (human TIMP-1 [7]): 0.0002 µM
B10: MS-BW-44-6-1 (Fab, V domains shown)
VH: QVQLVESGGGLVQPGGSLRLSCAASGFTFNSYAMSWVRQAPGKGLEWVSVISGNGSNTYYADSVKGRFTISRDNSKNTLYLQMNSLRAEDTAVYYCARFLDIWGQGTLVTVSS
VL: DIALTQPASVSGSPGQSITISCTGTSSDVGGYNYVSWYQQHPGKAPKLMIYDVSNRPSGVSNRFSGSKSGNTASLTISGLQAEDEADYYCQSYDFIRFMVFGGGTKLTVLG

- IC50 in rat protease assay (rat TIMP-1 [9]): 20000 µM
B11: MS-BW-63 (Fab, V domains shown)
VH: QVQLVQSGAEVKKPGESLKISCKGSGYSFTSYWIGWVRQMPGKGLEWMGIIYPGDSDTRYSPSFQGQVTISADKSISTAYLQWSSLKASDTAMYYCARILTGHVLLFDYWGQGTLVTVSS
VL: DIALTQPASVSGSPGQSITISCTGTSSDVGGYNYVSWYQQHPGKAPKLMIYDVSNRPSGVSNRFSGSKSGNTASLTISGLQAEDEADYYCQSDNPYLVFGGGTKLTVLG

— patent US20040105862A1 (published 2004)
